In PMC10786891, “Massively parallel profiling of RNA-targeting CRISPR-Cas13d”:

T1: EsCas13d, nuclease-dead (Eubacterium siraeum, UniProt B0MS50, R295A;H300A;R849A;H854A)
T1 sequence: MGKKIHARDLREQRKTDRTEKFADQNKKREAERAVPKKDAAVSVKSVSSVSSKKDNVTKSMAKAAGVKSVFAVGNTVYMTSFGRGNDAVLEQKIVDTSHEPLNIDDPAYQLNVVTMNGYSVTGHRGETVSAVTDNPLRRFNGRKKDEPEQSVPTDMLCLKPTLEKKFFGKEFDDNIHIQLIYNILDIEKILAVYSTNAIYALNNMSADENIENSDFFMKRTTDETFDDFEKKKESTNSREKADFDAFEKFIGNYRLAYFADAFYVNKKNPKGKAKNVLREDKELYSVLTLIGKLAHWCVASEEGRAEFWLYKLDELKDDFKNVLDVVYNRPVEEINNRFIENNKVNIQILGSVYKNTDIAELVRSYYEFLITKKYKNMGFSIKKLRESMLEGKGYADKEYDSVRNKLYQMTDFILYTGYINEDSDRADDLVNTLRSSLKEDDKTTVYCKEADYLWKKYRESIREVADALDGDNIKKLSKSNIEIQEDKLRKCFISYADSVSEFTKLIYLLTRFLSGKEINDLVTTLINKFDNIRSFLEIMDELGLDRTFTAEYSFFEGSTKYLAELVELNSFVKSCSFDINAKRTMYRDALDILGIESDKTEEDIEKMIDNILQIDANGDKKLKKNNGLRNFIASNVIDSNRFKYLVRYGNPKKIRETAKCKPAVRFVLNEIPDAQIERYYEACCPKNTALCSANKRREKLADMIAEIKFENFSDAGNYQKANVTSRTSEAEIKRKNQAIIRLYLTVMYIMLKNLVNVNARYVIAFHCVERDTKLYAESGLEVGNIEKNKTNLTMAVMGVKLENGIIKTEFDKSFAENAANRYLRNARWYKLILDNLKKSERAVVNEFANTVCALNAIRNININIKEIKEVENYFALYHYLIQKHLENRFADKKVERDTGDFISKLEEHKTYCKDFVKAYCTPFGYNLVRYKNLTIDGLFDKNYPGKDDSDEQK


Molecular target: T1, EsCas13d, nuclease-dead
Test: crRNA (strand 1, pre-loaded); Mg2+; 40 mM Tris-HCl pH 7.5, 150 mM NaCl, 6 mM MgCl2, 1 mM DTT, 0.1% Tween-20, 0.2 mg/ml BSA; 25 C; 10 min per concentration, then washed
Settings: tags: His6-TwinStrep-SUMO cleaved; N-terminal SNAP kept (SNAP-Surface 488); label: 3' end held by stalled T7 RNA polymerase

Row | Binder | Kd [nM]
1 | target 1 C4U,U10A (mixed) RNA 1: CACCCGUGCAAAAAUGCAGGGGUCUAAAACUGAGCGGAUAACCUCUCUAUGG RNA 2: GGGAAUGGAUCCACAUCUACGAAUUCGUACCAUAGAGAGGUAAUCCGUUCACCGAGAUCGGAAGAGCACACGU | 47 ± 15
2 | target 1 C2U,U10G (mixed) RNA 1: CACCCGUGCAAAAAUGCAGGGGUCUAAAACUGAGCGGAUAACCUCUCUAUGG RNA 2: GGGAAUGGAUCCACAUCUACGAAUUCGUACCAUAGAGAGGUGAUCCGCUUACCGAGAUCGGAAGAGCACACGU | 23.6 ± 1.7
3 | target 1 C2A,G13A (mixed) RNA 1: CACCCGUGCAAAAAUGCAGGGGUCUAAAACUGAGCGGAUAACCUCUCUAUGG RNA 2: GGGAAUGGAUCCACAUCUACGAAUUCGUACCAUAGAGAAGUUAUCCGCUAACCGAGAUCGGAAGAGCACACGU | 5.06 ± 0.27
4 | target 1 complement block 6-14 (mixed) RNA 1: CACCCGUGCAAAAAUGCAGGGGUCUAAAACUGAGCGGAUAACCUCUCUAUGG RNA 2: GGGAAUGGAUCCACAUCUACGAAUUCGUACCAUAGAGUCCAAUAGGGCUCACCGAGAUCGGAAGAGCACACGU | 69 ± 27
5 | target 1 insC 3' of 14,insA 3' of 3 (mixed) RNA 1: CACCCGUGCAAAAAUGCAGGGGUCUAAAACUGAGCGGAUAACCUCUCUAUGG RNA 2: GGGAAUGGAUCCACAUCUACGAAUUCGUACCAUAGAGACGGUUAUCCGCUACACCGAGAUCGGAAGAGCACACGU | 24.8 ± 1.9
6 | target 1 del19,del20 (mixed) RNA 1: CACCCGUGCAAAAAUGCAGGGGUCUAAAACUGAGCGGAUAACCUCUCUAUGG RNA 2: GGGAAUGGAUCCACAUCUACGAAUUCGUACCAGAGAGGUUAUCCGCUCACCGAGAUCGGAAGAGCACACGU | 32.4 ± 3.4
7 | target 1 U3G,G12U (mixed) RNA 1: CACCCGUGCAAAAAUGCAGGGGUCUAAAACUGAGCGGAUAACCUCUCUAUGG RNA 2: GGGAAUGGAUCCACAUCUACGAAUUCGUACCAUAGAGAGUUUAUCCGCGCACCGAGAUCGGAAGAGCACACGU | 8.5 ± 0.4
8 | target 1 insC 3' of 14,insG 3' of 9 (mixed) RNA 1: CACCCGUGCAAAAAUGCAGGGGUCUAAAACUGAGCGGAUAACCUCUCUAUGG RNA 2: GGGAAUGGAUCCACAUCUACGAAUUCGUACCAUAGAGACGGUUAGUCCGCUCACCGAGAUCGGAAGAGCACACGU | 38 ± 9
9 | target 1 C2A,G15C (mixed) RNA 1: CACCCGUGCAAAAAUGCAGGGGUCUAAAACUGAGCGGAUAACCUCUCUAUGG RNA 2: GGGAAUGGAUCCACAUCUACGAAUUCGUACCAUAGACAGGUUAUCCGCUAACCGAGAUCGGAAGAGCACACGU | 40 ± 4
10 | target 1 A1C,A9U (mixed) RNA 1: CACCCGUGCAAAAAUGCAGGGGUCUAAAACUGAGCGGAUAACCUCUCUAUGG RNA 2: GGGAAUGGAUCCACAUCUACGAAUUCGUACCAUAGAGAGGUUUUCCGCUCCCCGAGAUCGGAAGAGCACACGU | 20 ± 5
11 | target 1 insG 3' of 22,insG 3' of 7 (mixed) RNA 1: CACCCGUGCAAAAAUGCAGGGGUCUAAAACUGAGCGGAUAACCUCUCUAUGG RNA 2: GGGAAUGGAUCCACAUCUACGAAUUCGUACGCAUAGAGAGGUUAUCGCGCUCACCGAGAUCGGAAGAGCACACGU | 18.1 ± 1.1
12 | target 1 insC 3' of 8,insA 3' of 3 (mixed) RNA 1: CACCCGUGCAAAAAUGCAGGGGUCUAAAACUGAGCGGAUAACCUCUCUAUGG RNA 2: GGGAAUGGAUCCACAUCUACGAAUUCGUACCAUAGAGAGGUUAUCCCGCUACACCGAGAUCGGAAGAGCACACGU | 11.8 ± 0.7
13 | target 1 del19,del22 (mixed) RNA 1: CACCCGUGCAAAAAUGCAGGGGUCUAAAACUGAGCGGAUAACCUCUCUAUGG RNA 2: GGGAAUGGAUCCACAUCUACGAAUUCGUACAAGAGAGGUUAUCCGCUCACCGAGAUCGGAAGAGCACACGU | 56 ± 16
14 | target 1 del13,del20 (mixed) RNA 1: CACCCGUGCAAAAAUGCAGGGGUCUAAAACUGAGCGGAUAACCUCUCUAUGG RNA 2: GGGAAUGGAUCCACAUCUACGAAUUCGUACCUAGAGAGUUAUCCGCUCACCGAGAUCGGAAGAGCACACGU | 56 ± 8
15 | target 1 A1C,G17U (mixed) RNA 1: CACCCGUGCAAAAAUGCAGGGGUCUAAAACUGAGCGGAUAACCUCUCUAUGG RNA 2: GGGAAUGGAUCCACAUCUACGAAUUCGUACCAUAUAGAGGUUAUCCGCUCCCCGAGAUCGGAAGAGCACACGU | 34 ± 9
16 | target 1 del17 (mixed) RNA 1: CACCCGUGCAAAAAUGCAGGGGUCUAAAACUGAGCGGAUAACCUCUCUAUGG RNA 2: GGGAAUGGAUCCACAUCUACGAAUUCGUACCAUAAGAGGUUAUCCGCUCACCGAGAUCGGAAGAGCACACGU | 22.6 ± 1.6
17 | target 1 C6A,U11C (mixed) RNA 1: CACCCGUGCAAAAAUGCAGGGGUCUAAAACUGAGCGGAUAACCUCUCUAUGG RNA 2: GGGAAUGGAUCCACAUCUACGAAUUCGUACCAUAGAGAGGCUAUCAGCUCACCGAGAUCGGAAGAGCACACGU | 8.6 ± 0.7
18 | target 1 insU 3' of 9,insG 3' of 4 (mixed) RNA 1: CACCCGUGCAAAAAUGCAGGGGUCUAAAACUGAGCGGAUAACCUCUCUAUGG RNA 2: GGGAAUGGAUCCACAUCUACGAAUUCGUACCAUAGAGAGGUUAUUCCGCGUCACCGAGAUCGGAAGAGCACACGU | 13.6 ± 2.1
19 | target 1 insC 3' of 20,insC 3' of 10 (mixed) RNA 1: CACCCGUGCAAAAAUGCAGGGGUCUAAAACUGAGCGGAUAACCUCUCUAUGG RNA 2: GGGAAUGGAUCCACAUCUACGAAUUCGUACCACUAGAGAGGUUCAUCCGCUCACCGAGAUCGGAAGAGCACACGU | 8.7 ± 0.6
20 | target 1 insC 3' of 15,insG 3' of 3 (mixed) RNA 1: CACCCGUGCAAAAAUGCAGGGGUCUAAAACUGAGCGGAUAACCUCUCUAUGG RNA 2: GGGAAUGGAUCCACAUCUACGAAUUCGUACCAUAGAGCAGGUUAUCCGCUGCACCGAGAUCGGAAGAGCACACGU | 9.32 ± 0.33
21 | target 1 insA 3' of 11,insC 3' of 9 (mixed) RNA 1: CACCCGUGCAAAAAUGCAGGGGUCUAAAACUGAGCGGAUAACCUCUCUAUGG RNA 2: GGGAAUGGAUCCACAUCUACGAAUUCGUACCAUAGAGAGGUAUACUCCGCUCACCGAGAUCGGAAGAGCACACGU | 15.3 ± 0.8
22 | target 1 insG 3' of 18,insG 3' of 7 (mixed) RNA 1: CACCCGUGCAAAAAUGCAGGGGUCUAAAACUGAGCGGAUAACCUCUCUAUGG RNA 2: GGGAAUGGAUCCACAUCUACGAAUUCGUACCAUAGGAGAGGUUAUCGCGCUCACCGAGAUCGGAAGAGCACACGU | 34.9 ± 3
23 | target 1 A9G,A14C (mixed) RNA 1: CACCCGUGCAAAAAUGCAGGGGUCUAAAACUGAGCGGAUAACCUCUCUAUGG RNA 2: GGGAAUGGAUCCACAUCUACGAAUUCGUACCAUAGAGCGGUUGUCCGCUCACCGAGAUCGGAAGAGCACACGU | 46 ± 6
24 | target 1 C2G,G12C (mixed) RNA 1: CACCCGUGCAAAAAUGCAGGGGUCUAAAACUGAGCGGAUAACCUCUCUAUGG RNA 2: GGGAAUGGAUCCACAUCUACGAAUUCGUACCAUAGAGAGCUUAUCCGCUGACCGAGAUCGGAAGAGCACACGU | 8.4 ± 0.8
